Laboratory results published in PMC7144898 (Nucleic Acids Research, 2020).

Target: T1, Recombinant N-terminal (His)6-tagged P. abyssi ASH-Ski2, full length (Pyrococcus abyssi, UniProt Q9V2M1 1-855)
T1 sequence (looked up): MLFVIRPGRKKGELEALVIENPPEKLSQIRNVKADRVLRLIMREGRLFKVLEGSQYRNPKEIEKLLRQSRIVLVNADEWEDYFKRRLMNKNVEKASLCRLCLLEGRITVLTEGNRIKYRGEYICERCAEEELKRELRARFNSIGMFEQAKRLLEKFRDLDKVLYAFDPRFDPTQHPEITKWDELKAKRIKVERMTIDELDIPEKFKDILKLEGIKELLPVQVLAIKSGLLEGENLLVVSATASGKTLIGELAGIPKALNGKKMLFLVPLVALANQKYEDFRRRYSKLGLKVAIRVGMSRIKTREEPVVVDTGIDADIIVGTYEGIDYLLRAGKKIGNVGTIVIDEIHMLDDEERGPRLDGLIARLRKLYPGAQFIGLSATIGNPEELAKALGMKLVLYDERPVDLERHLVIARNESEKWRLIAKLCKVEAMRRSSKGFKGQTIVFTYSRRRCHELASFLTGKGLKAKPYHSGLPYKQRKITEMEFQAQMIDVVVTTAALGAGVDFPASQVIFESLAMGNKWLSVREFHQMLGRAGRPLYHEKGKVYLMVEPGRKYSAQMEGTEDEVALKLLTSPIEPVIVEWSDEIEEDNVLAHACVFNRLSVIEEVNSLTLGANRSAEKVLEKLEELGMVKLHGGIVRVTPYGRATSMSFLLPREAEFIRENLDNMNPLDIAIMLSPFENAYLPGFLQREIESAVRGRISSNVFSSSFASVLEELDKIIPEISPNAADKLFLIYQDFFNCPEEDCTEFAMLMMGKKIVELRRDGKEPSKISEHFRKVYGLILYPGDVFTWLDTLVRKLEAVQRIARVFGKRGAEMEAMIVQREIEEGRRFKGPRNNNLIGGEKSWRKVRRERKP
Test: co-sedimentation

binding result: binds
B1: Recombinant aRNase J from P. abyssi with C-terminal (His)6-tag (enzyme, Pyrococcus abyssi, UniProt Q9V076 1-451, looked up)
chain: MWEEINMIKIYTLGGYEEVGKNMTAVEYNGEVVIVDMGIRLDRVLIHEDVEFQKMSSKDLRKLGAIPDDRPIRNKKVVAIALSHGHLDHIGAVGKLAPHYPDVPIYGTPYTIRLAKSEIKGEEYFEVTNPLYETNYGEIVQVSENLAIEFVQITHSIPQSSIVVIHTPEGAVVYACDYKFDNNHPYGERPDYKRLKELGKEGVKVLIAESTRVAEETKTPSEAVAKMLLEDFFLYEGMEADGLIATTFASHIARLQELIEIANKMGRQAIFIGRSLAKYTGIAKQLGLIKMKGSRVLRSPNAVSKVLKEVSQARENYLLIVTGHQGEPGAILTRMANGELYDIGPRDTVVFSAGVIPNPLNVAQRYALETKLRMKGVRMIKNLHVSGHASKEDHRYLIRMLNPEYIVPAHGEFRMLTHYAELAEEEGYMIGKEVFISRNGHVVEIPGSLEG
